Measured values as given in patent publication US11608380B2, “Anti-EGFRvIII antibodies and uses thereof” (REGENERON PHARMACEUTICALS, INC., priority 2014, dated 2023).
Like-named read-outs stand apart in the source and are kept apart here.

Columns and labels:
[1] = test system: EGFRvIII-mFc; test: SPR (BIACORE) binding kinetics, mAb-capture format; design: species or system human; details: 37° C., NB=no binding; for ka: analyte EGFRvIII-mFc (dimeric); for kd: analyte EGFRvIII-mFc
[2] = target: T1, EGFR-mFc (Homo sapiens, UniProt P00533); test: SPR (BIACORE) binding kinetics, receptor-capture format; details: 37° C., EGFR-mFc captured, NB=no binding
Description: (§1) Measurements were conducted on a T100 BIACORE™ instrument. […] In the receptor-capture format, either EGFRvIII-mFc or EGFR-mFc, was captured on the BIACORE™ chip and the respective antibodies flowed over. Kinetic association (ka) and dissociation (kd) rate constants were determined by processing and fitting the data to a 1:1 binding model using Scrubber 2.0 curve fitting software. Binding dissociation equilibrium constants (KD) and dissociative half-lives (t1/2) were calculated from the kinetic rate constants as: KD (M)=kd/ka; and t1/2 (min)=ln 2/(60*kd).

[3] = target: EGFRvIII-mFc; type: binding, human; details: 37° C., receptor-capture, EGFRvIII-mFc captured
Description: as §1

[4] = target: EGFRvIII-mmh (Homo sapiens, UniProt P00533, DELINS30-297G); test: SPR (BIACORE) binding kinetics, mAb-capture format; details: 37° C., NB=no binding; for ka: analyte EGFRvIII-mmh (monomeric); for kd: analyte EGFRvIII-mmh
Description: as §1

[5] = test system: HEK293 cells; test: FACS cell binding selectivity; type: cell-based; details: 10 μg/ml
Description: To determine the specificity of the anti-EGFRvIII mAbs, their binding to HEK293, HEK293 cells expressing EGFRvIII (HEK293/EGFRvIII) and A431 cells, was analyzed by fluorescence activated cell sorting (FACS). HEK293/EGFRvIII cells were prepared by transfecting HEK293 cells with neomycin resistant DNA vectors constitutively expressing full-length hEGFRvIII (SEQ ID NO:147) using LIPOFECTAMINE™ 2000 transfection reagent (INVITROGEN™). At two days post-transfection, cells were placed under G418 selection for approximately two weeks. Populations positively expressing EGFRvIII were isolated via fluorescence activated cell sorting (FACS). The HEK293 cells expressing ˜3×10^6 copies of EGFRvIII per cell were used in the experiment. Briefly, the anti-EGFRvIII antibodies at 10 μg/ml were incubated with cells for 30 minutes at room temperature, washed, incubated with secondary antibody, i.e., phycoerythrin (PE)-labeled goat F(ab′)2 against human IgG (cat #109-116-170, Jackson ImmunoResearch Laboratories), followed by a final wash before FACS analysis. In another set of experiment, anti-EGFRvIII antibodies were directly conjugated via their lysine residues with the fluorescent dye, ALEXA FLUOR® 488 Dye (INVITROGEN™), thereby eliminating the step using the secondary antibody. […] Controls I, II, III, IV and V are described above. MFI: Mean Fluorescence Intensity.

[6] = test system: Control peptide; test: Antibody specificity by ELISA; details: ELISA binding, irrelevant peptide
Description: (§2) To further characterize anti-hEGFRvIII mAbs, their binding specificity was examined by ELISA. […] For the junctional peptides that were linked to biotin either at C-terminal (SEQ ID NO:149) or N-terminal (SEQ ID NO:150) via a linker, plates were pre-coated with avidin. Also, coated was an irrelevant peptide (control peptide) with or without biotin at its N-terminal. Anti-EGFRvIII antibodies as well as an isotype control antibody were added to coated plates and allowed to incubate for 1 hour at 25° C. The plates were then washed and bound anti-EGFRvIII mAbs were detected with anti-human Fc antibodies conjugated with horse-radish peroxidase (HRP). Plates were developed with a tetra-methyl-benzidine (TMB) substrate solution to produce a colorimetric reaction and neutralized with sulfuric acid before reading absorbance at 450 nm on a VICTOR™ X5 plate reader. Data analysis used a sigmoidal dose-response model within PRISM™ software. […] NT: Not tested. Controls I-III: As described above.

[7] = test system: N-term Biotin control peptide; test: Antibody specificity by ELISA; details: ELISA binding, irrelevant peptide with N-terminal biotin
Description: as §2

[8] = target: T1, EGFR-mFc; test: SPR (BIACORE) binding kinetics, mAb-capture format; details: 37° C., NB=no binding
[9] = target: EGFR-mmh (Homo sapiens, UniProt P00533); test: SPR (BIACORE) binding kinetics, mAb-capture format; details: 37° C., NB=no binding
[10] = target: junctional peptide (J-peptide) (Homo sapiens, UniProt P00533, DELINS30-297G); test: Antibody specificity by ELISA; details: ELISA binding
Description: (§3) To further characterize anti-hEGFRvIII mAbs, their binding specificity was examined by ELISA. […] For the junctional peptides that were linked to biotin either at C-terminal (SEQ ID NO:149) or N-terminal (SEQ ID NO:150) via a linker, plates were pre-coated with avidin. Also, coated was an irrelevant peptide (control peptide) with or without biotin at its N-terminal. Anti-EGFRvIII antibodies as well as an isotype control antibody were added to coated plates and allowed to incubate for 1 hour at 25° C. The plates were then washed and bound anti-EGFRvIII mAbs were detected with anti-human Fc antibodies conjugated with horse-radish peroxidase (HRP). […] Data analysis used a sigmoidal dose-response model within PRISM™ software.

[11] = target: C-term biotin J-peptide (Homo sapiens, UniProt P00533, DELINS30-297G); test: Antibody specificity by ELISA; details: ELISA binding, avidin pre-coated plates
Description: as §3

[12] = target: N-term biotin J-peptide (Homo sapiens, UniProt P00533, DELINS30-297G); test: Antibody specificity by ELISA; details: ELISA binding, avidin pre-coated plates
Description: as §3

[13] = test system: HEK293/EGFRvIII cells; test: Internalization of anti-EGFRvIII mAbs; type: cell-based, human; details: 37° C., 1 h
Description: Anti-EGFRvIII mAbs (10 ug/ml) were incubated with HEK293/[…] (see Example 7, supra) cells for 2 hours on ice followed by two PBS washes. Cells were then subjected to a 30-min incubation on ice with secondary DYLIGHT™ 488-conjugated anti-human IgG Fab fragments (Jackson ImmunoResearch Laboratories) followed by two additional PBS washes. Antibodies were allowed to internalize for 1 h at 37° C. in internalization buffer (PBS+FBS) or remained at 4° C. Cells were fixed in 4% formaldehyde, and nuclei stained with DRAQ5® DNA dye (Cell Signaling Technology, Inc.). Images were acquired at 40× on the IMAGEXPRESS™ high content system (Molecular Devices) and internalized vesicles were quantitated using Columbus software (Perkin Elmer).

[14] = directly labeled (ALEXA FLUOR 488) antibodies

Chain of EGFRvIII-mFc (as listed by the source): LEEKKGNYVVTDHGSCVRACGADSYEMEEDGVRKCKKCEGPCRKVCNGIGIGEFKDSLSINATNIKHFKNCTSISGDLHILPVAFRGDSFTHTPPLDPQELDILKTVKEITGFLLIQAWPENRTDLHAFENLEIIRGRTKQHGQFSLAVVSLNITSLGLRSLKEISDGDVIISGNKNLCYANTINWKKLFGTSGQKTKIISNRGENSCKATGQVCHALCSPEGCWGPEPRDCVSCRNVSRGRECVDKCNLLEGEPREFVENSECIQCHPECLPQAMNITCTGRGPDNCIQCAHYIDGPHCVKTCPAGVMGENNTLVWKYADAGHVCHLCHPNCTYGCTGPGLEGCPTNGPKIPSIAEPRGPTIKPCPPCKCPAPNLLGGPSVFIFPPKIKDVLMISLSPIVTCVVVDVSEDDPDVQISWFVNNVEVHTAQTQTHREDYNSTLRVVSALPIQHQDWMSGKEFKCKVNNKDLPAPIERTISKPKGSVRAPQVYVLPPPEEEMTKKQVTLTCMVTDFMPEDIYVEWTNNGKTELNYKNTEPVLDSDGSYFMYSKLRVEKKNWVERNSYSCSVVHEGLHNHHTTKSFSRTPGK

B1: H1H1913N: human IgG1 Fc anti-EGFRvIII antibody with variable domains 1913; HCVR/LCVR SEQ ID NOs 130/138 (antibody, V domains shown)
VH: QVQLQQWGAGLLKPSETLSLTCAVYGGSFSGDYWSWIRQSPGKGLEWIGEINHSGSTNYNPSLKSRVTISIDTSKNQFSLKLSSVTAADTAVYYCARGGGDYYYGMDVWGLGTTVTVSS
VL: AIQMTQSPSSLSASVGDRVTITCRASQGIGNDLGWYQQKPGKAPNLLIYATSSLQSGVPSRFSGSGSGTDFTLTISSLQPEDFATYYCLQDYNYPWTFGQGTKVEIK
modifications: human IgG1 Fc
Question: How did the ka [1] turn out when B1 was run?
Answer: Its ka is 14000 M⁻¹ s⁻¹.

Question: And the kd [1]?
Answer: The kd was 0.000316 s⁻¹.

Question: What about the ka [2] of the same molecule?
Answer: The ka was 5930 M⁻¹ s⁻¹.

Question: And the kd [2]?
Answer: Its kd is 1e-06 s⁻¹.

Question: What about the Kd [3] of the same molecule?
Answer: Its Kd is 0.0158 nM.

Question: What about the ka [3] of the same molecule?
Answer: The ka was 63000 M⁻¹ s⁻¹.

Question: And the ka [4]?
Answer: The ka was 163 M⁻¹ s⁻¹.

Question: What about the kd [4] of the same molecule?
Answer: Its kd is 0.00114 s⁻¹.

Question: And the “Parental HEK293 MFI” value [5, 14]?
Answer: Its value is 4801.

B2: H1H2195P: human IgG1 Fc anti-EGFRvIII antibody; HCVR/LCVR SEQ ID NOs 18/26 (antibody, V domains shown)
VH: QVQLVESGGGVVQPGRSRRLSCVGSGFIFSSYGMHWVRQAPGKGLEWVALIFYDGSNEYYVDSVKGRFTISRDNSKNTLYLQMNSLRAEDTAVYYCAREGYSQRYKYYFGMDVWGQGTTVTVSS
VL: DIQMTQSPSSVSASVGDRVTITCRASQGISSWLAWYQQQPGKAPKLLIYAASSLQSGVPSRFSGSGSGTDFTLTISSLQPEDFATYYCQQTNSFPLTFGGGTKVEIKR
modifications: human IgG1 Fc
Question: With B2 as the molecule, how does the ka [1] read?
Answer: The ka was 102000 M⁻¹ s⁻¹.

Question: And the kd [1]?
Answer: The kd was 0.000113 s⁻¹.

Question: What about the EC50 [6] of the same molecule?
Answer: Its EC50 is greater than 10 nM.

Question: What about the EC50 [7] of the same molecule?
Answer: Its EC50 is greater than 10 nM.

Question: What about the ka [2] of the same molecule?
Answer: The ka was 225000 M⁻¹ s⁻¹.

Question: And the kd [2]?
Answer: The kd was 5.2e-05 s⁻¹.

Question: And the ka ([8]; analyte EGFR-mFc (dimeric))?
Answer: The ka was 92000 M⁻¹ s⁻¹.

Question: What about the kd ([8]; analyte EGFR-mFc) of the same molecule?
Answer: Its kd is 0.000189 s⁻¹.

Question: What about the ka [3] of the same molecule?
Answer: The ka was 237000 M⁻¹ s⁻¹.

Question: What about the kd [3] of the same molecule?
Answer: Its kd is 2.53e-05 s⁻¹.

Question: What about the ka ([9]; analyte EGFR-mmh (monomeric)) of the same molecule?
Answer: Its ka is 56600 M⁻¹ s⁻¹.

Question: And the kd ([9]; analyte EGFR-mmh)?
Answer: The kd was 0.000523 s⁻¹.

Question: And the ka [4]?
Answer: Its ka is 64800 M⁻¹ s⁻¹.

Question: And the kd [4]?
Answer: Its kd is 0.000694 s⁻¹.

Question: And the “Parental HEK293 MFI” value ([5]; secondary PE-labeled anti-Fc)?
Answer: Its value is 1176.

Question: And the EC50 [10]?
Answer: Its EC50 is greater than 10 nM.

Question: And the EC50 [11]?
Answer: The EC50 was greater than 10 nM.

Question: What about the EC50 [12] of the same molecule?
Answer: Its EC50 is greater than 10 nM.

B3: H1H1912N: human IgG1 Fc anti-EGFRvIII antibody with variable domains 1912; HCVR/LCVR SEQ ID NOs 66/74 (antibody, V domains shown)
VH: EVQLVESGGGLVQPGRSLRLSCAASGFTFDDYAMHWVRQVPGKGLEWVSGISWNSGSIGYADSVKGRFTISRDNAKNSLYLQMNSLRAEDTALYYCAKDIHDYGKDYYYYYGMDVWGQGTTVTVSS
VL: EIALTQSPGTLSLSPGERATLSCRASQSVSSTYLAWYQQKPGQAPRLLIYGASSRATGIPDRFSGSGSGTDFTLTISRLEPEDFAVYYCQQYDSSPITFGQGTRLEIK
modifications: human IgG1 Fc
Question: Which ka [1] does the source give for B3 here?
Answer: The ka was 20400 M⁻¹ s⁻¹.

Question: And the kd [1]?
Answer: The kd was 0.000971 s⁻¹.

Question: What about the EC50 [6] of the same molecule?
Answer: The EC50 was greater than 10 nM.

Question: What about the EC50 [7] of the same molecule?
Answer: The EC50 was greater than 10 nM.

Question: And the ka [2]?
Answer: The ka was 39900 M⁻¹ s⁻¹.

Question: What about the kd [2] of the same molecule?
Answer: Its kd is 0.000914 s⁻¹.

Question: And the ka [3]?
Answer: Its ka is 99000 M⁻¹ s⁻¹.

Question: What about the kd [3] of the same molecule?
Answer: The kd was 0.000537 s⁻¹.

Question: And the ka [4]?
Answer: Its ka is 18300 M⁻¹ s⁻¹.

Question: And the kd [4]?
Answer: Its kd is 0.0164 s⁻¹.

Question: And the “Parental HEK293 MFI” value [5, 14]?
Answer: Its value is 3727.

Question: What about the EC50 [10] of the same molecule?
Answer: Its EC50 is greater than 10 nM.

Question: What about the EC50 [11] of the same molecule?
Answer: Its EC50 is greater than 10 nM.

Question: What about the EC50 [12] of the same molecule?
Answer: The EC50 was greater than 10 nM.

Question: What about the internalization [13] of the same molecule?
Answer: The internalization was “Internalization was also observed”.

B4: H1H1911N: human IgG1 Fc anti-EGFRvIII antibody with variable domains 1911; HCVR/LCVR SEQ ID NOs 50/58 (antibody, V domains shown)
VH: QVQLVESGGGVVQPGRSLRLSCAASGFTFSRYGIHWVRQAPGKGLEWVAVIWHDGSNKYYADSVKGRFTISRDNSKNTLYLQMTSLRAEDTAVYYCARDGLEIRDHYYYGMDVWGQGTTVTVSS
VL: DIQMTQSPSTLSASVGDRVTITCRASQSTSSWLAWYQQKPGKAPTLLIYKASSLESGVPSKFSGSGSGTEFTLTISSLQPDDFATYYCQQYNRYSRTFGQGTKVEIK
modifications: human IgG1 Fc
Question: What does the source list for B4?
Answer: EC50 [6]: > 10 nM; EC50 [7]: > 10 nM; ka [2]: 7770 M⁻¹ s⁻¹; kd [2]: 0.00174 s⁻¹; ka [3]: 32900 M⁻¹ s⁻¹; kd [3]: 0.000643 s⁻¹; Parental HEK293 MFI [5, 14]: 3593; Parental HEK293 MFI ([5]; secondary PE-labeled anti-Fc): 1812; EC50 [10]: > 10 nM; EC50 [11]: > 10 nM; EC50 [12]: > 10 nM; internalization [13]: Internalization was also observed
